± gives the half width of the 95% confidence interval.
Tests used:
[1] = folding stability dG unfold from trypsin proteolysis; higher = more stable
Summary of the method: (§1)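 How resistant each design was to proteolysis was captured as K50, inferred by Bayesian fitting of sequencing counts. Unfolding free energy was then derived relative to a sequence-predicted unfolded-state K50 and a shared folded-state K50, per protease or combined. Digestion used trypsin and chymotrypsin at 11 threefold-diluted concentrations plus a no-protease condition, on mini-proteins under 80 residues without cysteine in a PA-tagged cDNA display construct. Designs were kept only when AlphaFold2 dimer inter-PAE was above 15.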

[2] = folding stability dG unfold from chymotrypsin proteolysis; higher = more stable
Summary of the method: as §1

[3] = folding stability dG unfold (combined trypsin and chymotrypsin); higher = more stable
Summary of the method: as §1

Sequence | folding stability dG unfold [1] | folding stability dG unfold [2] | folding stability dG unfold [3]
SAGGSAGGSAGGIPPDVKVKPVATVNLTAEVEVTVLGPEGGPTFTVKVEVKVVFAESTDSAGGSAGGSAGGS [r10_758_TrMRF] | 1.51 ± 0.37 kcal/mol | 2.57 ± 0.24 kcal/mol | 2.11 ± 0.26 kcal/mol
SAGGSAGGKLVVLLVRRPDGSLALRVTDAENPAEALEAARRNGMEALPLEVDDLEEFLEAIGLGSAGGSAGG [r6_495_TrMRF] | 0.875 ± 0.076 kcal/mol | 2.65 ± 0.09 kcal/mol | 2.17 ± 0.13 kcal/mol
SAGGSAGGSKPPPTVEIEITLEDGTVLRIRVTPDRIEIENLETGKRFTFPPGATIEIEVRKLPSAGGSAGGS [r12_227_TrROS_Hall] | 3.95 ± 0.82 kcal/mol | 3.73 ± 0.49 kcal/mol | 4.19 ± 0.56 kcal/mol
SAGGSAMPKKVVEGPVPPEDVEARIAELLEEDPNLTYVKFTYPELGSEVVIDFENGKVTKIERLLESAGGSA [r15_166_JUSTAS] | -0.217 ± 0.1 kcal/mol | 0.211 ± 0.1 kcal/mol | 0.108 ± 0.052 kcal/mol
SAGGSAGGSMEIVVPVKNPEELKAVAEELEKKGYKVEKLPDGSLKVEKPGSVIYIKGDPVPPLSAGGSAGGS [r12_204_JUSTAS] | 1.52 ± 0.074 kcal/mol | 1.49 ± 0.06 kcal/mol | 1.45 ± 0.14 kcal/mol
SAGGSAGGSAGGMTVERDPEKPVVTVTITDPSGASIVVEIPYETEEEAEAAVKKVIEELASAGGSAGGSAGG [r7_756_JUSTAS] | 2.11 ± 0.091 kcal/mol | 1.53 ± 0.07 kcal/mol | 1.83 ± 0.13 kcal/mol
SAGGSAGGSEKEIEVNGKKITIEKNEDGSYKLIIEVNGKKYEITLSLEELKKKNLTIEELLKKSAGGSAGGS [r20_90_TrROS_Hall] | 1.92 ± 0.072 kcal/mol | 3.61 ± 0.13 kcal/mol | 3.26 ± 0.16 kcal/mol
SAGGSAAVGTSKGANVVTVRVEELEDKVVVYRYDPATGTVRVIVIDKPTGKALETKTFPVLPDQDASAGGSA [r15_425_TrMRF] | 1.01 ± 0.018 kcal/mol | 1.95 ± 0.047 kcal/mol | 1.65 ± 0.049 kcal/mol
SDPNGKPKKRRFYVMITVPHKMKPERDPDGKMEMEHKMPTVMFPFPADDLDDLRDILEPFGISVSLMPLDSA [r9_1209_TrROS] | 1.6 ± 0.057 kcal/mol | 2.14 ± 0.066 kcal/mol | 1.94 ± 0.093 kcal/mol
SAGGSAGGSPPPIEIRFPNGWEIDKIDPDDAHIILRMPNWIISIEIDPKDGEIDIDIVPNADVSAGGSAGGS [r12_243_TrROS] | 1.15 ± 0.1 kcal/mol | 2.09 ± 0.32 kcal/mol | 1.71 ± 0.27 kcal/mol
SLSKSTPVSSLEEALKIAKEAAEEFEKELGKPYPVLVEVEFEPLEDGSVLVRFKLYRPEEGKYLREIEVGSA [r9_794_TrMRF] | 0.874 ± 0.064 kcal/mol | 1.67 ± 0.2 kcal/mol | 1.38 ± 0.18 kcal/mol
SGPTSTVDPEFPGSTPGGTVTPSVVRVPVPPDEVERVIEEIRERAGVPGLKVERVERTADGVVLIEVSLPSA [r9_1101_JUSTAS] | 0.36 ± 0.029 kcal/mol | 1.15 ± 0.015 kcal/mol | 0.882 ± 0.066 kcal/mol
SAGGNIRIWFPGREIPIGGTVEDIKANIRKWLGRPIPEELIEQIDKGKTVSEIVDWLRKRGFPIRIWSAGGS [r16_601_TrROS] | 1.78 ± 0.031 kcal/mol | 1.94 ± 0.16 kcal/mol | 1.87 ± 0.11 kcal/mol
SAGGSAGGSAGGKPYIITLPNMKREVVFENSALVEFEDGSVIAAFENNVIVFFPVPEDALSAGGSAGGSAGG [r7_29_TrMRF] | 0.121 ± 0.042 kcal/mol | 0.786 ± 0.093 kcal/mol | 0.578 ± 0.12 kcal/mol
SAGGSAGGSGWIKIEFWIPIPIPVMKFDPGDGNWEMEPVTIMIRVEIEIPIPPSPEDLEKNGLSAGGSAGGS [r20_172_TrROS] | 2.2 ± 0.15 kcal/mol | 2.82 ± 0.069 kcal/mol | 2.57 ± 0.27 kcal/mol
SAGGSAGGSAGMRIRAEVVEISPPGAVIVLRYEIEFPLPDDEPVRLEFDAVLYIPVPPEASAGGSAGGSAGG [r11_689_TrMRF] | 2.63 ± 0.12 kcal/mol | 4.16 ± 0.098 kcal/mol | 3.69 ± 0.13 kcal/mol
SAGGSAGGSGMELEKLLESVKEVKVEPTSSGEKEVTITLKPPEPSETEVKIDKETYEKLLELKSAGGSAGGS [r12_466_JUSTAS] | -0.907 ± 0.21 kcal/mol | 0.404 ± 0.024 kcal/mol | 0.137 ± 0.12 kcal/mol
SAEVTSTFDPSTGILTVTVKLEDPETGKPIPAEEVAAEVEKEYPNSTILSIEPDPEGYVTITVKVPPELVSA [r9_87_JUSTAS] | 1.81 ± 0.075 kcal/mol | 3.16 ± 0.049 kcal/mol | 2.79 ± 0.039 kcal/mol
SAGGSAGGSAGGMTVTLKAPDGKWLTVPVDPEDPKAVKEAVEELAAKGHPVVEVSTDEKSAGGSAGGSAGGS [r10_231_JUSTAS] | 0.555 ± 0.025 kcal/mol | 0.0542 ± 0.097 kcal/mol | 0.355 ± 0.059 kcal/mol
SAGGSKKPKKIIVIEIPENMTEEEIKKLAEELAKKLNIKKIVKIEKKKDGSVRIVLETKDGKKIEFSAGGSA [r2_168_TrROS_Hall] | 2.3 ± 0.089 kcal/mol | 2.84 ± 0.035 kcal/mol | 2.63 ± 0.16 kcal/mol
SAGGMPLPFRITQWDPNTGKPVATFPAVYDPETGLVVITPPDGSKEVFDAPLEEIVEALPSNWTVEPSAGGS [r16_543_TrMRF] | 0.121 ± 0.096 kcal/mol | -0.0752 ± 0.48 kcal/mol | 0.083 ± 0.16 kcal/mol

Reference: the supplement of paper PMC12764529
